The results in this text go back to patent US20230192845A1 (BLINK BIOMEDICAL, published 2023).

The target of assay [1] is T1, rhesus CD96 transiently expressed on CHO cells (rhesus, UniProt P40200 22-585 (human entry)).
T1 construct: also called rhesus CD96, short isoform
T1 chain: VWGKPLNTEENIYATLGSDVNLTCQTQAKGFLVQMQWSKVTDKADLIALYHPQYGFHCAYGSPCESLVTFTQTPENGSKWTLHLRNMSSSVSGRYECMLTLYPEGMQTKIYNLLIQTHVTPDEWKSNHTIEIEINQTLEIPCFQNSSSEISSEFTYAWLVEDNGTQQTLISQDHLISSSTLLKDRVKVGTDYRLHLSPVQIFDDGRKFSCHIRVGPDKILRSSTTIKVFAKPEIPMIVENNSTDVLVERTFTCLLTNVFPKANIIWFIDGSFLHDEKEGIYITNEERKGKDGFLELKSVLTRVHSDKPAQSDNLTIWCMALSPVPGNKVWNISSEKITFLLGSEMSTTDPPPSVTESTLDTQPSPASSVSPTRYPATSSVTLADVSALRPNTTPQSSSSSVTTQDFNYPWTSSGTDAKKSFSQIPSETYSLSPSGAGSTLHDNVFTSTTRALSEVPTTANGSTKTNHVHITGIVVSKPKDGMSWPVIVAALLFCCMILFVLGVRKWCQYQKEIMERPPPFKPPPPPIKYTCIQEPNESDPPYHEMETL
Put plainly: flow cytometry on CHO cells transiently expressing rhesus CD96; antibody at 1 (thin line) and 10 µg/ml (thick dashed line), filled grey = isotype control. The procedure: FIG. 7: Binding profiles of anti-CD96 antibodies on CHO cells transfected with rhesus CD96. Anti-CD96 antibodies or the corresponding isotype control mAbs were tested for their capacity to recognize rhesus CD96 transiently expressed on CHO cells by flow cytometry. Each histogram represents the overlay of the fluorescence intensity obtained for each antibody tested at 1 (black line) and 10 μg/ml (thick dashed black line) and compared to the fluorescence obtained with an isotypic control (filled grey histogram).
(§1) The capacity of the identified mouse anti-human CD96 antibodies to recognize the CD96 protein from other species was further analyzed by flow cytometry by using CHO cells expressing the mouse or the rhesus CD96. The expression of the species-specific CD96 on CHO cell surface was confirmed by using staining with appropriate anti-CD96 antibodies and flow cytometry on non-fixed cells. The rat anti-mCD96 antibody clone #630612 (R&D Systems) and the candidate BL006-9-1 (positive by ELISA on rhesus CD96) were used to confirm the expression of rhesus CD96, while the clone 6A6 (rat IgG2a, e-Bioscience) was used to verify the expression of mouse CD96.
(§2) Mouse anti-CD96 antibodies and isotype control antibodies were incubated at 10 or 1 μg/mL with CHO cells expressing different CD96 species at +4° C. for 30 minutes.
(In general: A flow cytometer gives signals particle by particle.)

In assay [2] the target is T2, human CD96 short isoform v2 expressed on CHO cells (human, UniProt P40200 22-585).
T2 construct: also called hCD96v2; CD96v2; not shown: C-terminal HA-tag
T2 sequence: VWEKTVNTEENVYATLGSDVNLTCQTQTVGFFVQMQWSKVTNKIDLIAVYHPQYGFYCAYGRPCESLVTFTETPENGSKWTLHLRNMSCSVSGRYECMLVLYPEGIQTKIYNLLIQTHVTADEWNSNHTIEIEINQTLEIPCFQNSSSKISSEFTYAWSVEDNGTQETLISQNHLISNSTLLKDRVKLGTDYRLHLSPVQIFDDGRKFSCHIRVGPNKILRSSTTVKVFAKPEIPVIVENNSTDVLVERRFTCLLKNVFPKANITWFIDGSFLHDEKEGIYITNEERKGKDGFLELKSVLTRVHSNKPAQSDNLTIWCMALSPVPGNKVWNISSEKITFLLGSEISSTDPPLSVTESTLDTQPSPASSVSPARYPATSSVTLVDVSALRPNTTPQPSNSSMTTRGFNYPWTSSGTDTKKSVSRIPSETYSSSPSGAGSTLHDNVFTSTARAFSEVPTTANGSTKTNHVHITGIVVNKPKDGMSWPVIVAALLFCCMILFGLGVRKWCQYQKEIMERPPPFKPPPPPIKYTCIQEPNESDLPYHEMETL
Put plainly: FCM on hCD96v2-CHO cells. Here is the method: FIG. 6: Binding profiles of anti-hCD96 antibodies on human CD96-transfected CHO cells (hCD96v2, short isoform). CHO cells expressing hCD96v2 were incubated with serial dilution of the indicated mIgG1 or mIgG2a anti-CD96 or isotype control antibodies. […] The results are expressed as the difference of mean fluorescence intensity (delta MFI) between cells stained with antibodies and cells without antibodies. Dose response curves were obtained from GraphPad prism software using a non-linear regression fit with a variable slope model (4 parameters). To simplify the reading, results from the various anti-hCD96 candidates are shown on 4 different panels.
The capacity of the identified mouse anti-CD96 antibodies to recognize the cell membrane expressed human CD96 was further analyzed by flow cytometry (FCM) by using CHO cells stably transfected with the CD96 short isoform v2 (CD96v2; Genbank accession number NM_005816, flanked in C-terminus with HA-tag) (SEQ ID NO: 268).
Mouse anti-CD96 antibodies and isotype control antibodies were incubated at various concentrations from 10 μg/mL to 4.6 ng/mL with CHO cells expressing human CD96 at +4° C. for 30 minutes. […] The differences between the mean fluorescence intensity (MFI) obtained for each of the antibody concentration and the intensity obtained in absence of primary antibody (delta-MFI), were calculated and plotted against the concentrations of antibodies.

Assay [3] addresses T2, human CD96 short isoform v2 expressed …. Kind of assay: FCM, inhibition of hCD155-Fc binding to hCD96v2-CHO cells. Here is the method:
All candidates except BL006-2-19 that bound very weakly on hCD96v2 by FCM were tested for their capacity to inhibit the binding of human CD155 to hCD96v2 stably expressed on CHO cells. Human CD96-transfected CHO cells (3×10⁵ cells/well of 96-well plate) were incubated at +4° C. for 30 minutes with serial dilutions of anti-CD96 antibodies or isotype control antibody (in mIgG2a or mIgG2aD265A format) in the presence of 4 μg/mL of biotinylated hCD155-Fc (produced and biotinylated at BliNK).
% inhibition=(1−(MFI_wAb&CD155−MFI_CHO)/(MFI_wCD155−MFI_CHO))×100, where MFI_wAb&CD155 is the Mean Intensity Fluorescence (MFI) obtained with the hCD96-CHO cells incubated with the tested antibody and hCD155-hFc; MFI_CHO is the MFI obtained in the absence of hCD155 and mAbs; and MFI_wCD155 is the fluorescence with hCD155 but without pre-incubation with antibody (0% CD155 binding inhibition). The % of inhibition was plotted against antibody concentration and the IC50 values were calculated by using a nonlinear regression analysis model of the GraphPad Prism software.

In assay [4] the target is T3, mouse CD96 expressed on CHO cells (mouse, UniProt Q3U0X8 22-602).
T3 construct: whole, on cells; also called mCD96
T3 sequence (looked up): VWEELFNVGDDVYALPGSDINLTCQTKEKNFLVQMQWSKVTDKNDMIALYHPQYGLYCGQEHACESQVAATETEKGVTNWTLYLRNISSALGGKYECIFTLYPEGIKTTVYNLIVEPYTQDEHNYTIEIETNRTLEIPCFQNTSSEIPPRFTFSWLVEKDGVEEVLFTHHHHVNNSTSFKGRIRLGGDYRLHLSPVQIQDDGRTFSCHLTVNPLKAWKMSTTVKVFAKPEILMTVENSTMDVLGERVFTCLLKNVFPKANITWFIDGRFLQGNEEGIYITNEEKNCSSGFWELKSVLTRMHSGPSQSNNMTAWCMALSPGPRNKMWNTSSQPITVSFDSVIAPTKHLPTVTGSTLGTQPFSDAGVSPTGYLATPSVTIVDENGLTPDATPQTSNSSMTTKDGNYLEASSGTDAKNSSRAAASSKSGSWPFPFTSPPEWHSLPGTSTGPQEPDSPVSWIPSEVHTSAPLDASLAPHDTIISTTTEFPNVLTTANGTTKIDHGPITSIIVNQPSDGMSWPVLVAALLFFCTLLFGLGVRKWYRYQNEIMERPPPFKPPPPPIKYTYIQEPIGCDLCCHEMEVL
Kind of assay: FCM on CHO cells expressing mouse CD96.
Source text: as §1, §2

A value given as a limit tells only on which side of the number the result lay.

B1: BL006-9-1G1-1K1 (antibody, V domains shown)
VH: EVKLVESGGGLVKPGGSLKLSCAASGFTFSSYAMSWVRQTPERGLEWVAAIQSNGGSTFYPDTVKDRFTISRDNAKNTLYLQMSSLRSEDTALYYCVRGPFDYWGQGTTLTVSS
VL: QIVLTQSPAIMSASPGQKVTIPCSASSSVNYIHWFQQKLGSSPKLWIYDTSKLTPGVPARFSGSGSGTSYSLTISSMEAEDAASYFCHQWRSYPPTFGGGTKLEIK
notes: Recombinant mIgG2a/kappa (also made as mIgG2a-D265A); also called candidate NO 11
With B1, the binding result in assay [1] is “binds”. For the same molecule, in assay [2], a half-maximal response (EC50) required 17.5 nM and the “Maximum binding (delta MFI)” value was 514000 delta MFI. Moreover, in assay [3], the “Maximal Inhibition Capacity (%)” value is below 5%. In addition, in assay [4], the binding result is “no binding (tested: 1 and 10 µg/mL)”.

B2: BL006-4-61G5-61K1 (antibody, V domains shown)
VH: EVKLEESGGGLVQPGGSMKLSCVASGFTFSNYWMNWVRQSPEKGLEWVAQIRFKSDNYATHYAESVKGRFTISRDDSKSSVYLQMHNLRAEDTGIYYCTEFAYWGQGTLVTVSA
VL: QILLTQSPAIMSASPGEKVTMTCSASSRVNSRFLNWYQQKSGVSPKLWIYGTSNLASGVPARFSGSGSGTSYSLTISSVEAEDVATYYCQQYQSDPPITFGAGTRLELI
notes: Recombinant mIgG2a/kappa (also made as mIgG2a-D265A); also called BL006-4-61G5-61K1 #7; candidate NO 3
As to B2, the binding result in assay [1] was “binds”. For the same molecule, in assay [2], a half-maximal effect (EC50) was put at 2.05 nM and the “Maximum binding (delta MFI)” value was 330000 delta MFI. Moreover, in assay [3], the “Maximal Inhibition Capacity (%)” value is below 5%. The binding result in assay [4] is “no binding (tested: 1 and 10 µg/mL)”.

B3: BL006-19-183G3-183K4 (antibody, V domains shown)
VH: QVTLNESGPGILQPSQTLSLTCSFSGFSLTTYGMGVGWIRQPSGKSLEWLANIWWTEDKYYNSALKSRLTISTDTSHNQVFLKISSVDTEDTATYYCAQMGPEVYSAMDYWGQGTSVTVSS
VL: DIVMTPSQKFMSTTVGDRVSITCKASQNVGTAVAWYQQKPGHSPKLLIYSASNRNTGVPDRFTGSGSGTDFTLTISNMQSEDLADYFCHQYSRYPWTFGGGTKLEIK
notes: Recombinant mIgG2a/kappa (also made as mIgG2a-D265A); also called BL006-19-183G3-183K4 #3; candidate NO 8
B3: the binding result in assay [1] is on record as “no binding (tested: 10 µg/ml)”. Moreover, in assay [2], a half-maximal response (EC50) required 4.56 nM and the “Maximum binding (delta MFI)” value is 681000 delta MFI. In assay [3], the IC50 (commonly the concentration that gives 50% inhibition) came to 15 nM and the “Maximal Inhibition Capacity (%)” value is 100%. For the same molecule, the binding result in assay [4] was “no binding (tested: 1 and 10 µg/mL)”.

B4: BL006-11-5G1-5K3 (antibody, V domains shown)
VH: EVQLVESGGGLVKPGGSLKLSCAASGFTFSSYAMSWVRQTPEKRLEWVAAINTDGASTYFPATVKDRFTISRDNAKNTLYLQMSSLRSEDTALYYCARPLEPGSWFAYWGQGTLVTVSA
VL: DVLMTQTPLSLPVSLGDQASISCRSSQSIVHSNGNTYLEWYLQKPGQSPKVLIYKVSNRFSGVPDRISGSGSGTDFTLKISRVEAGDLGVYYCFQGSHVPYTFGGGTKLEIK
notes: Recombinant mIgG2a/kappa (also made as mIgG2a-D265A); also called BL006-11-5G1-5K3 #5; candidate NO 5
For B4, the binding result in assay [1] is recorded as “no binding (tested: 10 µg/ml)”. Moreover, in assay [2], the EC50 – broadly, the concentration that produces a half-maximal response – stood at 12.8 nM and the “Maximum binding (delta MFI)” value was determined as 373000 delta MFI. Moreover, the “Maximal Inhibition Capacity (%)” value in assay [3] was below 5%. Further, in assay [4], the binding result is “no binding (tested: 1 and 10 µg/mL)”.

B5: BL006-19-21G1-21K1 (antibody, V domains shown)
VH: QVQLQQPGAELVKPGASVKMSCKASGYTFISYWITWVKQRPGQGLEWIGDIYPGSGHTNYNEKFKSKATLTVDTSSSTAYMQLSSLTSEDSAVYYCARPTVEAMDYWGQGTSVTVSS
VL: QIVLTQSPAIMSASPGEKVTMTCSASSSVNYMHWYQQRSGTSPKRWIYDTSKLASGVPARFSGSGSGTSYSLTISSMEAEDAATYYCQQWSNNPLTFGAGTKLELK
notes: Recombinant mIgG2a/kappa (also made as mIgG2a-D265A); also called candidate NO 13
Consider B5, for which the binding result in assay [1] is on record as “binds”. Moreover, in assay [2], the midpoint of the response, the EC50, lay at 6.53 nM and the “Maximum binding (delta MFI)” value was found to be 599000 delta MFI. In assay [3], the IC50 stood at 19.4 nM and the “Maximal Inhibition Capacity (%)” value came out at 100%. For the same molecule, in assay [4], the binding result was “no binding (tested: 1 and 10 µg/mL)”.

B6: BL006-19-55G10-55K7 (antibody, V domains shown)
VH: QVQLQQSGAEVVRPGTSVKMSCKAAGYTFTDNWIDWVKQRPGHGLDWIGNIFPGGNYTNYNEKFKGKATLTADTSSSTAYMQLINLTSEDSAIYYCVRAVADSQFAYWGQGTLVTVSA
VL: QIVLTQSPAIMSVSPGEKVTMTCSASSRVTYMYWYQQKPGSSPKPWIYRTSNLASGVPVRFSGSGSGTSYSLTISSMEAEDAATYYCQQWSSNPLTFGAGTKLELK
notes: Recombinant mIgG2a/kappa (also made as mIgG2a-D265A); also called candidate NO 15
Regarding B6, the binding result in assay [1] is recorded as “binds”. For the same molecule, in assay [2], the concentration for a half-maximal effect (EC50) is 3.3 nM and the “Maximum binding (delta MFI)” value turned out to be 636000 delta MFI. In addition, in assay [3], the half-inhibitory concentration (IC50) amounted to 8.84 nM and the “Maximal Inhibition Capacity (%)” value amounted to 98.3%. For the same molecule, in assay [4], the binding result was “no binding (tested: 1 and 10 µg/mL)”.
